Source: patent publication US7592163B2 (The Board of Trustees of the University of Illinois, priority 2004, dated 2009)

Legend:
[1] = biological target: T1, N. crassa XR (Neurospora crassa, UniProt Q7SD67); assay: Kinetic analysis of N. crassa XR: initial rates, NAD(P)H consumption at 340 nm, with cofactors and sugar substrates; format: biochemical; settings: for acts as substrate for N. crassa XR: NADPH as the cofactor; for fold difference in catalytic efficiency (kcat/KM) between NADPH and NADH: NADPH favoured over NADH; for kcat: xylose reduction with the named coenzyme, 25° C., 50 mM MOPS pH 6.3
T1 sequence (Q7SD67 1-322): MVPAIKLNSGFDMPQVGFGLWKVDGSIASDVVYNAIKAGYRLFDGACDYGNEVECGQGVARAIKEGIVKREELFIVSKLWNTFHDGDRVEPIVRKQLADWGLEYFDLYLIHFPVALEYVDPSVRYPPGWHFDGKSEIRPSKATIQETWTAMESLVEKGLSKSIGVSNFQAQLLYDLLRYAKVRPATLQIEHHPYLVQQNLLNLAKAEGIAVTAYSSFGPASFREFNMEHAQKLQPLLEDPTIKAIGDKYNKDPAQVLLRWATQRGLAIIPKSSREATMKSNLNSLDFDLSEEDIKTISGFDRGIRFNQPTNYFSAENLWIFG
Description: Michaelis-Menten constants (KM) were determined for both cofactors as well as for xylose with either cofactor. The maximum turnover number (kcat) was also determined with both cofactors. […] Xylose concentrations were varied from 10 to 250 mM while either cofactor concentration was held at 160 μM.
Analysis of substrate specificity.
Kinetic Analysis. […] All initial rate assays were carried out at 25° C. in 50 mM MOPS pH 6.3 using a Varian Cary 100 Bio UV-visible spectrophotometer unless otherwise noted. The reaction was initiated by addition of 0.1-1 μg of XR. […] The data were then converted to turnover number and fitted by non-linear regression analysis to the Michaelis-Menten equation using Origin 5.0. […] All assays were performed in duplicate or triplicate at least two times. The kinetic data presented represent averages of statistically relevant measurements and with their associated standard deviations.

[2] = literature, cited from earlier work; for kcat / Km: with NADPH as cofactor; for Km: read-out: KM, Xylose
[3] = substrate: OC1OC[C@@H](O)[C@@H](O)[C@H]1O; assay: Kinetic analysis of N. crassa XR: initial rates, NAD(P)H consumption at 340 nm, with cofactors and sugar substrates; format: biochemical, Neurospora crassa; settings: other: KM of the sugar substrate, NADPH as cofactor, 25° C., 50 mM MOPS pH 6.3
[4] = substrate: OC1OC[C@H](O)[C@H](O)[C@H]1O; assay: as above; format: biochemical, Neurospora crassa; settings: other: KM of the sugar substrate, NADPH as cofactor, 25° C., 50 mM MOPS pH 6.3
[5] = substrate: OC1OC[C@@H](O)[C@H](O)[C@H]1O; assay: as above; format: biochemical, Neurospora crassa; settings: other: KM of the sugar substrate, NADPH as cofactor, 25° C., 50 mM MOPS pH 6.3

In the case of O=C(CO)[C@@H](O)[C@H](O)[C@H](O)CO [D-fructose], the “acts as substrate for N. crassa XR” value [1] is reported as “did not act as substrates”.

For “Nicotinamide adenine dinucleotide reduced [NADH]”, the “fold difference in catalytic efficiency (kcat/KM) between NADPH and NADH” value [1] was 100 fold and the kcat [1] was 5.17 ± 0.167 s⁻¹.

In the case of O=C[C@@H](O)[C@H](O)[C@H](O)CO [D-arabinose], the “acts as substrate for N. crassa XR” value [1] is reported as “did not act as substrates” and the “acts as substrate for N. crassa XR” value ([1]; listed as D-arabinos) is reported as “activity”.

For OC[C@H]1O[C@@](CO)(O[C@H]2O[C@H](CO)[C@@H](O)[C@H](O)[C@H]2O)[C@@H](O)[C@@H]1O [sucrose], the “acts as substrate for N. crassa XR” value [1] was “did not act as substrates”.

For “Nicotinamide adenine dinucleotide phosphate reduced [NADPH]”, the “fold difference in catalytic efficiency (kcat/KM) between NADPH and NADH” value [1] was 100 fold and the kcat [1] was 60 ± 1.67 s⁻¹.

B1: S. cerevisiae: xylose reductase from S. cerevisiae, literature (protein, UniProt P38715 2-327, looked up)
NADPH-dependent aldose …: SSLVTLNNGLKMPLVGLGCWKIDKKVCANQIYEAIKLGYRLFDGACDYGNEKEVGEGIRKAISEGLVSRKDIFVVSKLWNNFHHPDHVKLALKKTLSDMGLDYLDLYYIHFPIAFKYVPFEEKYPPGFYTGADDEKKGHITEAHVPIIDTYRALEECVDEGLIKSIGVSNFQGSLIQDLLRGCRIKPVALQIEHHPYLTQEHLVEFCKLHDIQVVAYSSFGPQSFIEMDLQLAKTTPTLFENDVIKKVSQNHPGSTTSQVLLRWATQRGIAVIPKSSKKERLLGNLEIEKKFTLTEQELKDISALNANIRFNDPWTWLDGKFPTFA
For B1, the kcat [2] is listed as 14.3 s⁻¹ and the Km [2] is listed as 13.6 mM.

B2: C. tenuis: xylose reductase from Candida tenuis, literature (protein, UniProt O74237 1-322, looked up)
NAD(P)H-dependent D-xylose …: MSASIPDIKLSSGHLMPSIGFGCWKLANATAGEQVYQAIKAGYRLFDGAEDYGNEKEVGDGVKRAIDEGLVKREEIFLTSKLWNNYHDPKNVETALNKTLADLKVDYVDLFLIHFPIAFKFVPIEEKYPPGFYCGDGNNFVYEDVPILETWKALEKLVAAGKIKSIGVSNFPGALLLDLLRGATIKPAVLQVEHHPYLQQPKLIEFAQKAGVTITAYSSFGPQSFVEMNQGRALNTPTLFAHDTIKAIAAKYNKTPAEVLLRWAAQRGIAVIPKSNLPERLVQNRSFNTFDLTKEDFEEIAKLDIGLRFNDPWDWDNIPIFV
For B2, the “NADH-dependent XR kcat” value ([2]; NADH as cofactor) is given as 18.33 s⁻¹, the “Optimal pH” value [2] is given as 6.0 and the kcat [2] is given as 21.67 s⁻¹. The Km [2] was 72 mM.

B3: N. crassa XR (Neurospora crassa OR74A) (protein)
chain: T1 sequence (Q7SD67 1-322)
B3 showed a Km [3] of 70 ± 10 mM, a kcat/Km [3] of 750 M⁻¹ s⁻¹ and a Km [4] of 40 ± 10 mM. For the same molecule, the kcat [4] was 30 ± 1.67 s⁻¹, the kcat/Km [4] was 750 M⁻¹ s⁻¹ and the Km [5] was 34 mM. It also gave a kcat [5] of 60 ± 3.33 s⁻¹ and a kcat/Km [5] of 1830 M⁻¹ s⁻¹.

B4: P. stipitus: NADPH-dependent xylose reductase from P. stipitus, literature (protein, UniProt P31867 1-318, looked up)
NAD(P)H-dependent D-xylose …: MPSIKLNSGYDMPAVGFGCWKVDVDTCSEQIYRAIKTGYRLFDGAEDYANEKLVGAGVKKAIDEGIVKREDLFLTSKLWNNYHHPDNVEKALNRTLSDLQVDYVDLFLIHFPVTFKFVPLEEKYPPGFYCGKGDNFDYEDVPILETWKALEKLVKAGKIRSIGVSNFPGALLLDLLRGATIKPSVLQVEHHPYLQQPRLIEFAQSRGIAVTAYSSFGPQSFVELNQGRALNTSPLFENETIKAIAAKHGKSPAQVLLRWSSQRGIAIIPKSNTVPRLLENKDVNSFDLDEQDFADIAKLDINLRFNDPWDWDKIPIFV
For B4, the “Optimal pH” value [2] is given as 6.0, the kcat [2] is given as 25 s⁻¹ and the Km [2] is given as 42 mM.
